Test results reported in US6355481B1, “Hybridoma cell line and monoclonal antibody for huntingtin protein” (Emory University, priority 1999, dated 2002).

B1: CNTF: ciliary neurotrophic factor (protein, UniProt P26441 1-200, looked up)
Ciliary neurotrophic factor: MAFTEHSPLTPHRRDLCSRSIWLARKIRSDLTALTESYVKHQGLNKNINLDSADGMPVASTDQWSELTEAERLQENLQAYRTFHVLLARLLEDQQVHFTPTEGDFHQAIHTLLLQVAAFAYQIEELMILLEYKIPRNEADGMPINVGDGGLFEKKLWGLKVLQELSQWTVRSIHDLRFISSHQTGIPARGSHYIANNKKM
B2: HAP1-A: huntingtin-associated protein isoform expressed from cloned cDNA in pCIS vector transfected into PC12 cells (protein)
chain: MRPKDQVQSSAGDGTGSGDPATGTPTTQPAADPAPEPSAEPKPAPAQGTGSGQKSGSRTKTGGSFCRSRIRGDSDAPWTRYIFQGPYGPRATGLGTGRAEGIWKTPAAYIGRRPGVSGPERAAFIRELQEALCPNPLPRKKITEDDIKVMLYLLEEKERDLNTAARIGQSLVKQNSVLMEENNKLETMLGSAREEILHLRKQVNLRDDLLQLYSDSDDDEEDEEDEEEEEGEEEEREGQRDQDQQHDHPYGAPKPPPKAETLHHCPQLEALKQKLKLLEEENDHLREEASHLDNLEDKEQMLILECVEQFSEASQQMAELSEVLVLRLEGYERQQKEITQLQAEITKLQQRCQSYGAQTEKLQQQLASEKGVHPESLRAGSHMQDYGSRPRERQEDGKSHRQRSSMPAGSVTHYGYSVPLDALPSFPETLAEELRTSLRKFITDPAYFMERCDTRCREERKKEQGTMPPPPVQDLKPPEDFEAPEELVPEEELGAIEEVGTAEDGPAEETEQASEETEAWEEVEPEVDEATRMNVVVSALEASGLGPSHLDMKYVLQQLSNWQDAHSKRQQKQKVVPKGECSRRGHPPASGTSYRSSTL
B3: HD-23Q: N-terminal region of human huntingtin (amino acids 1-253) with 23 glutamines, expression construct (protein)
chain: MATLEKLMKAFESLKSFQQQQQQQQQQQQQQQQQQQQQPPPPPPPPPPPQLPQPPPQAQPLLPQPQPPPPPPPPPPGPAVAEEPLHRPKKELSATKKDRVNHCLTICENIVAQSVRNSPEFQKLLGIAMELFLLCSDDAESDVRMVADECLNKVIKALMDSNLPRLQLELYKEIKKNGAPRSLRAALWRFAELAHLVRPQKCRPYLVNLLPCLTRTSKRPEESVQETLAAAVPKIMASFGNFANDNEIKVLLK

How the values were obtained:
parental PC12 cells = experiment: Neurite outgrowth assay, parental PC12 cells; assay type: cell-based, rat; details: control/parental PC12 cells; IL-6 20 ng/ml, CNTF 20 ng/ml, EGF 10 ng/ml, bFGF 20 ng/ml
Description: To evaluate neurite outgrowth, we plated the cells at low density (2×10^4 Cells/cm^2) onto six-well plates. Cell cultures were treated with NGF (100 ng/ml) for 48 hr or with staurosporine (50-100 nM) and EGF (10 ng/ml) for 16 hr and were fixed with 4% paraformaldehyde in PBS for 15 min. After several washes with PBS, cells with neurites exceeding the cell diameter were counted using an inverted microscope (Olympus Optical CK2, Tokyo, Japan). At the same time, five to seven images (10×) were captured by a Pixera camera, and the percentage of cells with neurites was confirmed by analyzing these images. On average, 500-800 cells were counted for each group.

PC12 cells = experiment: Transfection of PC12 cells, immunofluorescence: neurites and perinuclear inclusions; assay type: cell-based, rat; details: for transfected cells with neurites: neurites exceeding two body diameters, vector alone 4.7%
Description: cDNA constructs and transfection of cells. Cloned HAP1-A and HAP1-B cDNAs were inserted into the expression vector pCIS (Li et al., 1995) carrying the cytomegalovirus promoter. The expression constructs encoding N-terminal human huntingtin (253 amino acids) with 23, 73, or 120 glutamines were obtained in a previous study (Li and Li, 1998). PC12 cells were plated onto two-well chamber slides at a density of 50,000/cm^2 and cultured for 24 h. Two micrograms of plasmid DNA was then added to each well in a 1-ml solution containing Lipofectamine (10 μg/ml), yielding 3-8% transfected cells. Following 18-24 h transfection, the media were replaced with fresh growth media and the cells were grown for another 24 h before immunofluorescent staining. The immunostaining images were captured using a 3CCD camera video system. Neurite length was measured as cell body diameters. The average sizes (μm) of perinuclcar huntingtin inclusions were obtained by measuring the diameters of inclusions in 58-112 cells transfected with huntingtin alone. The percentage of transfected cells with neurites that exceeded two body diameters was obtained by counting 200-300 transfected cells in three independent experiments. For double transfection, equal amounts (2 μg for each) of HAP1-A and huntingtin cDNAs were transfected into PC12 cells in each well of six-well dishes. The transfected cells were immunostained with the rabbit polyclonal antibody for HAP1-A and mouse monoclonal antibody for huntingtin.

Molecule | neurite outgrowth promoted by growth factor (parental PC12 cells) | length of the neurites (PC12 cells; single transfection) [body diameters] | transfected cells with neurites (PC12 cells; single transfection) [%] | cells with elongated neurites (PC12 cells; double transfection with HAP1-A, HAP1-A alone 29.4%) [%]
B1 | did not promote neurite outgrowth | – | – | –
B2 | – | 3.8 | 29.4 | –
B3 | – | – | 5.1 | 24.6
